Test results taken from patent publication US20130267584.

Tests used:
[1] = target: full-length TFPI (fl-TFPI, TFPI alpha) (Homo sapiens) (UniProt P10646); experiment: SPR; conditions: biotinylated, nucleotide sequence identical to BAX 499; ka 6.7e7 1/Ms, kd 6.6e-4 1/s; 37 C, HBS pH 7.4, 0.1% P20, 3 mM CaCl2; aptamer immobilized
[2] = target: full-length TFPI (fl-TFPI, TFPI alpha) (Homo sapiens) (UniProt P10646); experiment: inhibition; conditions: PEG

Chain of full-length TFPI (fl-TFPI, TFPI alpha) (Homo sapiens) (P10646 29-304): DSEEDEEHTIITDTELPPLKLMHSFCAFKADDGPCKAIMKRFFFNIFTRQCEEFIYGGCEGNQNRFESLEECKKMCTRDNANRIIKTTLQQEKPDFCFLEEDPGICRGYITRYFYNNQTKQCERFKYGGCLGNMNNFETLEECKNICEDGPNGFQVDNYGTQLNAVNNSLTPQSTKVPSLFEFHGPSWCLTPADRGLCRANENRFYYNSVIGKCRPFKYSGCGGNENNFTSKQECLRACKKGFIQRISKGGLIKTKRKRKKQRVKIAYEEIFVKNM

How did the Kd [1] turn out when ARC28635 was run?
The Kd was 0.015 nM.

What does the source list for BAX 499?
Kd ([2]; apparent Kd from relief of TFPI inhibition of TF/FVIIa, 12 nM TFPI, FXa independent, TFPI source not stated in this example): 1.2 nM; activity ([2]; aptamer giving about 50% recovery of extrinsic FXase activity with 3 nM TFPI, 75-80% recovery at saturation): 50 nM; EC50 ([2]; extrinsic tenase assay at 0.25 nM TFPI, maximal reversal 58% at 1000 nM, EC50 rises with TFPI level): 12 nM
